Experiments:
[1] = target: GST fusion of mouse importin β1 (PTAC97) (mouse) (UniProt P70168); test: GST-importin β pull-down of IVT 35S-EDD, autoradiography
[2] = target: GSTchk2-N (GST fused to chk2 aa 1-225) (human) (UniProt O96017); test: pre-incubation of GSTchk2-N with the peptide, then pull-down of IVT 35S-EDD (competitor of EDD)
Sequence of GSTchk2-N (GST fused to chk2 aa 1-225) (human) (O96017 1-225): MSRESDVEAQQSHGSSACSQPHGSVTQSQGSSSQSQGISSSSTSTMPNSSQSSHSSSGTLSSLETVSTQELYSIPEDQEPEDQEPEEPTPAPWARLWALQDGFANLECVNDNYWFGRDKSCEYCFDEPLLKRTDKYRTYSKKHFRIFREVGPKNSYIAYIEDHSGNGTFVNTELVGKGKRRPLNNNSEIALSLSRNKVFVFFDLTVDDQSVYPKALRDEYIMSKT

Sequence of GST fusion of mouse importin β1 (PTAC97) (mouse) (P70168 whole entry, the tested form may be a part): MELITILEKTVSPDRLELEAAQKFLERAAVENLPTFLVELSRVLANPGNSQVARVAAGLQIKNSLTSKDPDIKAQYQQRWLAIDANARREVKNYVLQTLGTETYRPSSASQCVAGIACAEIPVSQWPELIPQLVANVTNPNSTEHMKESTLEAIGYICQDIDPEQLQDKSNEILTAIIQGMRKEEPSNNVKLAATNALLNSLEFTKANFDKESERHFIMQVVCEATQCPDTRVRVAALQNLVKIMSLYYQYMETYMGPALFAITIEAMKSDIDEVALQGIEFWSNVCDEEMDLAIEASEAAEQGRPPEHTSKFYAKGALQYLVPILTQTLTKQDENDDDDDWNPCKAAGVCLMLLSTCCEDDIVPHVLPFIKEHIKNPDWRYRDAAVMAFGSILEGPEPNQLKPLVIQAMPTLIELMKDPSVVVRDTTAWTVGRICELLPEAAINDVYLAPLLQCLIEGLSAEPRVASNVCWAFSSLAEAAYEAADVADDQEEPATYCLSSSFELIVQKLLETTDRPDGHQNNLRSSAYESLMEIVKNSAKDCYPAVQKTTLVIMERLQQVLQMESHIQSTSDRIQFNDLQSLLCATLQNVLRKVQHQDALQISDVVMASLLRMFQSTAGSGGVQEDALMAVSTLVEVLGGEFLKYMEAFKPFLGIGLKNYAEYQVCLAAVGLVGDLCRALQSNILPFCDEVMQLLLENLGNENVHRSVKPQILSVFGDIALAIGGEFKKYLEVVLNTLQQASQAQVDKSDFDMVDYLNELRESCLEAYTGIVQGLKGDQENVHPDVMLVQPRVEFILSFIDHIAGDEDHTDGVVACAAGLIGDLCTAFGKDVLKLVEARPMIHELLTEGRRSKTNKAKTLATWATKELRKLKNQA

Which percent of the available EDD protein pulled down [1] does the source give for “EDD protein, full length (aa 1-2799) (from UniProt O95071 1-2799)” here?
The percent of the available EDD protein pulled down was 5%.

How did the peptide concentration that abolished binding of EDD to chk2-N [2] turn out when “FHA-binding phosphopeptide RWFDT(P)YLIRR” was run?
Its peptide concentration that abolished binding of EDD to chk2-N is greater than 50 µM.

From patent publication US20060147922A1, “Novel diagnostic and therapeutic methods and reagents therefor” (priority 2002, published 2006)
